# B1: Mevalonate kinase (Homo sapiens), Q03426 (parent)
# chain: MLSEVLLVSAPGKVILHGEHAVVHGKVALAVSLNLRTFLRLQPHSNGKVDLSLPNIGIKRAWDVARLQSLDTSFLEQGDVTTPTSEQVEKLKEVAGLPDDCAVTERLAVLAFLYLYLSICRKQRALPSLDIVVWSELPPGAGLGSSAAYSVCLAAALLTVCEEIPNPLKDGDCVNRWTKEDLELINKWAFQGERMIHGNPSGVDNAVSTWGGALRYHQGKISSLKRSPALQILLTNTKVPRNTRALVAGVRNRLLKFPEIVAPLLTSIDAISLECERVLGEMGEAPAPEQYLVLEELIDMNQHHLNALGVGHASLDQLCQVTRARGLHSKLTGAGGGGCGITLLKPGLEQPEVEATKQALTSCGFDCLETSIGAPGVSIHSATSLDSRVQQALDGL
# B2: Zinc finger and BTB domain-containing protein 9 (Homo sapiens), Q96C00 (parent)
# chain: METPTPLPPVPASPTCNPAPRTIQIEFPQHSSSLLESLNRHRLEGKFCDVSLLVQGRELRAHKAVLAAASPYFHDKLLLGDAPRLTLPSVIEADAFEGLLQLIYSGRLRLPLDALPAHLLVASGLQMWQVVDQCSEILRELETSGGGISARGGNSYHALLSTTSSTGGWCIRSSPFQTPVQSSASTESPASTESPVGGEGSELGEVLQIQVEEEEEEEEDDDDEDQGSATLSQTPQPQRVSGVFPRPHGPHPLPMTATPRKLPEGESAPLELPAPPALPPKIFYIKQEPFEPKEEISGSGTQPGGAKEETKVFSGGDTEGNGELGFLLPSGPGPTSGGGGPSWKPVDLHGNEILSGGGGPGGAGQAVHGPVKLGGTPPADGKRFGCLCGKRFAVKPKRDRHIMLTFSLRPFGCGICNKRFKLKHHLTEHMKTHAGALHACPHCGRRFRVHACFLRHRDLCKGQGWATAHWTYK
# partner: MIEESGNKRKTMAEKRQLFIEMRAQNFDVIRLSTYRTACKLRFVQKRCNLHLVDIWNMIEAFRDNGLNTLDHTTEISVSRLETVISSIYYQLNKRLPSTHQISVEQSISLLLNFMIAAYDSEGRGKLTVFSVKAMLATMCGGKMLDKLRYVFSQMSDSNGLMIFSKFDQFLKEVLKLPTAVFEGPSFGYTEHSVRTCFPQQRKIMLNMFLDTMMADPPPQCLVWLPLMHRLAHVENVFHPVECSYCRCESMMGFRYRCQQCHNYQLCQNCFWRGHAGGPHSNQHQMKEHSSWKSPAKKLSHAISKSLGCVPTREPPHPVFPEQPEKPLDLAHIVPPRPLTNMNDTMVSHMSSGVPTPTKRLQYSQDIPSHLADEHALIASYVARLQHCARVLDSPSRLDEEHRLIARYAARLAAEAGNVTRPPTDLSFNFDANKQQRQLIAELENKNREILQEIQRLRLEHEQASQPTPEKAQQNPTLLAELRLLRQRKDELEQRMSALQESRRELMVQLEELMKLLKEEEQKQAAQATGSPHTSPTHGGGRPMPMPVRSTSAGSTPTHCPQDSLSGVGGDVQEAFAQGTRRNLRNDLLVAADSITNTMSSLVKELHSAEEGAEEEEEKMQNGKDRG
# B3: Zinc finger and BTB domain-containing protein 43 (Homo sapiens), O43298 (parent)
# chain: MEPGTNSFRVEFPDFSSTILQKLNQQRQQGQLCDVSIVVQGHIFRAHKAVLAASSPYFCDQVLLKNSRRIVLPDVMNPRVFENILLSSYTGRLVMPAPEIVSYLTAASFLQMWHVVDKCTEVLEGNPTVLCQKLNHGSDHQSPSSSSYNGLVESFELGSGGHTDFPKAQELRDGENEEESTKDELSSQLTEHEYLPSNSSTEHDRLSTEMASQDGEEGASDSAEFHYTRPMYSKPSIMAHKRWIHVKPERLEQACEGMDVHATYDEHQVTESINTVQTEHTVQPSGVEEDFHIGEKKVEAEFDEQADESNYDEQVDFYGSSMEEFSGERSDGNLIGHRQEAALAAGYSENIEMVTGIKEEASHLGFSATDKLYPCQCGKSFTHKSQRDRHMSMHLGLRPYGCGVCGKKFKMKHHLVGHMKIHTGIKPYECNICAKRFMWRDSFHRHVTSCTKSYEAAKAEQNTTEAN
# B4: Zinc finger protein RFP (Homo sapiens), P14373 (parent)
# chain: MASGSVAECLQQETTCPVCLQYFAEPMMLDCGHNICCACLARCWGTAETNVSCPQCRETFPQRHMRPNRHLANVTQLVKQLRTERPSGPGGEMGVCEKHREPLKLYCEEDQMPICVVCDRSREHRGHSVLPLEEAVEGFKEQIQNQLDHLKRVKDLKKRRRAQGEQARAELLSLTQMEREKIVWEFEQLYHSLKEHEYRLLARLEELDLAIYNSINGAITQFSCNISHLSSLIAQLEEKQQQPTRELLQDIGDTLSRAERIRIPEPWITPPDLQEKIHIFAQKCLFLTESLKQFTEKMQSDMEKIQELREAQLYSVDVTLDPDTAYPSLILSDNLRQVRYSYLQQDLPDNPERFNLFPCVLGSPCFIAGRHYWEVEVGDKAKWTIGVCEDSVCRKGGVTSAPQNGFWAVSLWYGKEYWALTSPMTALPLRTPLQRVGIFLDYDAGEVSFYNVTERCHTFTFSHATFCGPVRPYFSLSYSGGKSAAPLIICPMSGIDGFSGHVGNHGHSMETSP
# partner: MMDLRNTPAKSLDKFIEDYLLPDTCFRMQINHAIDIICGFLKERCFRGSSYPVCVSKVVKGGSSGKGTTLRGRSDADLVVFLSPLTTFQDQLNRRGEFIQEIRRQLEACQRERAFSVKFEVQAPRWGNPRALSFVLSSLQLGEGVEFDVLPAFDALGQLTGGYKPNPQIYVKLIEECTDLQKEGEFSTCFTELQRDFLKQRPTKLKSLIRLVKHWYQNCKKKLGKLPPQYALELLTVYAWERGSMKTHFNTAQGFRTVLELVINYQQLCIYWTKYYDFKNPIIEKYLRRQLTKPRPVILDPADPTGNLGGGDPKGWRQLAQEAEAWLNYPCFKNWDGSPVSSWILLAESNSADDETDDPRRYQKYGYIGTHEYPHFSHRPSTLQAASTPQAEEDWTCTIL
# B5: DnaJ homolog subfamily C member 30, mitochondrial (Homo sapiens), Q96LL9 (parent)
# chain: MAAMRWRWWQRLLPWRLLQARGFPQNSAPSLGLGARTYSQGDCSYSRTALYDLLGVPSTATQAQIKAAYYRQCFLYHPDRNSGSAEAAERFTRISQAYVVLGSATLRRKYDRGLLSDEDLRGPGVRPSRTPAPDPGSPRTPPPTSRTHDGSRASPGANRTMFNFDAFYQAHYGEQLERERRLRARREALRKRQEYRSMKGLRWEDTRDTAAIFLIFSIFIIIGFYI
# partner: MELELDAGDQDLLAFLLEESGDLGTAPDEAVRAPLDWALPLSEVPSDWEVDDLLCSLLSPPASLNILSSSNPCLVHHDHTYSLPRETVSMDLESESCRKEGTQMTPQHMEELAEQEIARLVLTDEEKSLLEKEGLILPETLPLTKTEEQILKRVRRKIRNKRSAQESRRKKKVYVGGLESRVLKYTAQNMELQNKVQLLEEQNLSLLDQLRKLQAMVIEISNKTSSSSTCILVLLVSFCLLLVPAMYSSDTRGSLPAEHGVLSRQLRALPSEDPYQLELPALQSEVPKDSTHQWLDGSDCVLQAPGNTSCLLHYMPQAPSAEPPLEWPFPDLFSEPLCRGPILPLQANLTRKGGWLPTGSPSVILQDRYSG
# B6: Nanos homolog 2 (Homo sapiens), P60321 (parent)
# chain: MQLPPFDMWKDYFNLSQVVWALIASRGQRLETQEIEEPSPGPPLGQDQGLGAPGANGGLGTLCNFCKHNGESRHVYSSHQLKTPDGVVVCPILRHYVCPVCGATGDQAHTLKYCPLNGGQQSLYRRSGRNSAGRRVKR
# Variants of: B1
# Settings: with ews_human EWSR1, Q01844
# Chain of ews_human EWSR1, Q01844 (Q01844 whole entry): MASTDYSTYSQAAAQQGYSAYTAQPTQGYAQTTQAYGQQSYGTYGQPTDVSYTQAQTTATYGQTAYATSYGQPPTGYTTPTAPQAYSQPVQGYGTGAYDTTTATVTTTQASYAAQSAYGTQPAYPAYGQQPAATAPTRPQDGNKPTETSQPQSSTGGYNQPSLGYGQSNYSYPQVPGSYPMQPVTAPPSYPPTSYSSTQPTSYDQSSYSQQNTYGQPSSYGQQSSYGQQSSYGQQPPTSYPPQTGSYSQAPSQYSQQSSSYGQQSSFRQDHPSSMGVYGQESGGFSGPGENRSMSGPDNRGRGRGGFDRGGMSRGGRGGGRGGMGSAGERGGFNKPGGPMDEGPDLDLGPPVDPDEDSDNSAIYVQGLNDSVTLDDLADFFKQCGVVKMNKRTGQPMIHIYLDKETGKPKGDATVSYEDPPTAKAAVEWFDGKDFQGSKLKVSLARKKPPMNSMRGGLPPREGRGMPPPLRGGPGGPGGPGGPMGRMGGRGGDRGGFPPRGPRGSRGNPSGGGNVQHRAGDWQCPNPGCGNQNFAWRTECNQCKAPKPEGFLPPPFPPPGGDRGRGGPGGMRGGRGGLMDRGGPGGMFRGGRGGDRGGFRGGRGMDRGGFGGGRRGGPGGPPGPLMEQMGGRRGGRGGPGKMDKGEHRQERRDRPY
row,Variant,effect of a mutation on the interaction
1,N301T,with no effect

# Variants of: B2
# Settings: with dtnb_human DTNB
row,Variant,effect of a mutation on the interaction
1,S173C,with no effect

# Variants of: B3
# Settings: with psmd3_human PSMD3, O43242
# Chain of psmd3_human PSMD3, O43242 (O43242 whole entry): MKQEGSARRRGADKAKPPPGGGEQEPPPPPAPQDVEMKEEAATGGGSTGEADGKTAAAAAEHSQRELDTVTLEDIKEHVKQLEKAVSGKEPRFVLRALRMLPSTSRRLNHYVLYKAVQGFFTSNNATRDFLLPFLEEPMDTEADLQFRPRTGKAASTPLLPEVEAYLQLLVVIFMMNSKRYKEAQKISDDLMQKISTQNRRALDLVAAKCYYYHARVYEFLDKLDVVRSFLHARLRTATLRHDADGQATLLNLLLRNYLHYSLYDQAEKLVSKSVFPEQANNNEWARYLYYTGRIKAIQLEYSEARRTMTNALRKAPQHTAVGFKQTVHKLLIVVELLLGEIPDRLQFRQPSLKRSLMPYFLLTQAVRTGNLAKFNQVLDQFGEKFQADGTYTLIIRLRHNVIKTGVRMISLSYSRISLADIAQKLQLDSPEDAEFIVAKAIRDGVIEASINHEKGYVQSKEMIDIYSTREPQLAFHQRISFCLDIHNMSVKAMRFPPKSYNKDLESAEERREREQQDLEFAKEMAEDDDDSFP
row,Variant,effect of a mutation on the interaction
1,L151V,disrupting interaction strength

# Variants of: B3
# Settings: with traf2_human TRAF2, Q12933
# Chain of traf2_human TRAF2, Q12933 (Q12933 whole entry): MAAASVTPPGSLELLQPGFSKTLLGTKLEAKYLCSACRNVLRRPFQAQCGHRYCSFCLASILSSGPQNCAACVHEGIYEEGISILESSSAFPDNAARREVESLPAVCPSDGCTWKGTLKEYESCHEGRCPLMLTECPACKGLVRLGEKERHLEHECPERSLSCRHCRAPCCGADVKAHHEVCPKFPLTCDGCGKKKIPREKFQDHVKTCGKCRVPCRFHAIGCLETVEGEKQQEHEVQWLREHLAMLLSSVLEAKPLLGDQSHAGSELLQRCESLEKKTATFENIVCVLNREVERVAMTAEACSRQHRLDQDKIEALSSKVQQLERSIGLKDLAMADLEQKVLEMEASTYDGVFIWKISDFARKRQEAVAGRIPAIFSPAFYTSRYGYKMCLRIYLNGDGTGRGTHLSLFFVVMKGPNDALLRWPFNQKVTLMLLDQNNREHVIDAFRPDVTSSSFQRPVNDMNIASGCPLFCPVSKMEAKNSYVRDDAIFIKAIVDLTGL
row,Variant,effect of a mutation on the interaction
1,L151V,disrupting interaction strength

# Variants of: B3
# Settings: with mo4l2_human MORF4L2, Q15014
# Chain of mo4l2_human MORF4L2, Q15014 (Q15014 whole entry): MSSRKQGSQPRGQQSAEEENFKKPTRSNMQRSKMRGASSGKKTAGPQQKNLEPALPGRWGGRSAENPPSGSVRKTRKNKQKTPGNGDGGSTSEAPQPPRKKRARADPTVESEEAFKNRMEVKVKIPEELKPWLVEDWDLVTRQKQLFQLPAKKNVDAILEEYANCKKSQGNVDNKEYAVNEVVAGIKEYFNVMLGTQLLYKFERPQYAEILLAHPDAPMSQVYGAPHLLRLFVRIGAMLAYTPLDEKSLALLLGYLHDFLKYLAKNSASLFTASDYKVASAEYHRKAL
row,Variant,effect of a mutation on the interaction
1,L151V,disrupting interaction strength

# Variants of: B3
# Settings: with arrb1_human ARRB1, P49407
# Chain of arrb1_human ARRB1, P49407 (P49407 whole entry): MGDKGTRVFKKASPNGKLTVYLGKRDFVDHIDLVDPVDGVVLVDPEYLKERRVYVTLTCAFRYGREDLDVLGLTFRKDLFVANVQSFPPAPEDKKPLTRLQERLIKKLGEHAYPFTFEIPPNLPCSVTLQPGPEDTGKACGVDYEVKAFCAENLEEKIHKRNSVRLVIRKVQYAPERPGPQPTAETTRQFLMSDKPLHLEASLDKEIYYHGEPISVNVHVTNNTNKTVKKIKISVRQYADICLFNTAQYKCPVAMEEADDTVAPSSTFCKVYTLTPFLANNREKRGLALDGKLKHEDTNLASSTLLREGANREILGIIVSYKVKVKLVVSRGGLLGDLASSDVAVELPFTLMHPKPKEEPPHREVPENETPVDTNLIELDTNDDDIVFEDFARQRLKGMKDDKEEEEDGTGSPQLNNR
row,Variant,effect of a mutation on the interaction
1,L151V,disrupting interaction strength

# Variants of: B4
# Settings: with oas1_human OAS1, P00973
row,Variant,effect of a mutation on the interaction
1,N355S,disrupting interaction strength

# Variants of: B5
# Settings: with creb3_human CREB3, O43889
row,Variant,effect of a mutation on the interaction
1,T48K,with no effect

# Variants of: B6
# Settings: with magac_human MAGEA12, P43365
# Chain of magac_human MAGEA12, P43365 (P43365 whole entry): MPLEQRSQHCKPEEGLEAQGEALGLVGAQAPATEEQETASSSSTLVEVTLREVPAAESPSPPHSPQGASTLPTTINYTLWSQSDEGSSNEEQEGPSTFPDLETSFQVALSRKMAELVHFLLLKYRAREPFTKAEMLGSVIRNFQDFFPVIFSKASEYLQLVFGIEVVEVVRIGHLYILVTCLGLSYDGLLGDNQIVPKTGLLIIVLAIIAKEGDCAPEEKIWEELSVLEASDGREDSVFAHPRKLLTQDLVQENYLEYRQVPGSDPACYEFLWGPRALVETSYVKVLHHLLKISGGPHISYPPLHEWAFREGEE
row,Variant,effect of a mutation on the interaction
1,R26Q,with no effect
2,R73C,with no effect

# Variants of: B6
# Settings: with ccdb1_human CCNDBP1, O95273
# Chain of ccdb1_human CCNDBP1, O95273 (O95273 whole entry): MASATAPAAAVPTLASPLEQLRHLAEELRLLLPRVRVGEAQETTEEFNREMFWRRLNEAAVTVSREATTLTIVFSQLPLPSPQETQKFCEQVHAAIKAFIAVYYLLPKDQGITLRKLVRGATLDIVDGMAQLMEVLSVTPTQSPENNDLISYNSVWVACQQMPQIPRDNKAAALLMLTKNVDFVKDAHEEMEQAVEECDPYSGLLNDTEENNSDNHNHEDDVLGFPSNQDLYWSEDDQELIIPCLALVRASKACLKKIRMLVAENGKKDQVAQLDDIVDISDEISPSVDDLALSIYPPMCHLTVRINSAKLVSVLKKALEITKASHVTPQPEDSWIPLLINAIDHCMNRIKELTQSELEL
row,Variant,effect of a mutation on the interaction
1,R26Q,with no effect
2,R73C,with no effect
